{"source": "paper PMC5148066", "molecules": {"B1": {"name": "mouse CXCL1 (ligand)", "chain": "APIANELRCQCLQTMAGIHLKNIQSLKVLPSGPHCTQTEVIATLKNGREACLDPEAPLVQKIVQKMLKGVPK"}, "B2": {"name": "mouse CXCL4 (ligand)", "chain": "VTSAGPEESDGDLSCVCVKTISSGIHLKHITSLEVIKAGRHCAVPQLIATLKNGRKICLDRQAPLYKKVIKKILES"}, "B3": {"name": "mouse CCL19 (ligand)", "chain": "GANDAEDCCLSVTQRPIPGNIVKAFRYLLNEDGCRVPAVVFTTLRGYQLCAPPDQPWVDRIIRRLKKSSAKNKGNSTRRSPVS"}, "B4": {"name": "mouse CXCL2 (ligand)", "chain": "AVVASELRCQCLKTLPRVDFKNIQSLSVTPPGPHCAQTEVIATLKGGQKVCLDPEAPLVQKIIQKILNKGKAN"}, "B5": {"name": "mouse XCL1 (ligand)", "chain": "VGTEVLEESSCVNLQTQRLPVQKIKTYIIWEGAMRAVIFVTKRGLKICADPEAKWVKAAIKTVDGRASTRKNMAETVPTGAQRSTSTAITLTG"}, "B6": {"name": "mouse CCL3 (ligand)", "chain": "APYGADTPTACCFSYSRKIPRQFIVDYFETSSLCSQPGVIFLTKRNRQICADSKETWVQEYITDLELNA"}}, "data": [{"target": "Bovine papular stomatitis virus chemokine-binding protein (Bovine papular stomatitis virus)", "test": "SPR; BPSV-CBP immobilised on a CM5 chip (~500 RU, amine coupling, 10 mM sodium acetate pH 4.5); serial dilutions of mouse chemokines in HBS-EP pH 7.4 flowed in triplicate, 3 min association, 10 min dissociation, 25°C, Biacore X100; global fit, 1:1 binding model", "units": {"Kd": "nM", "koff": "s⁻¹", "kon": "M⁻¹ s⁻¹"}, "values": [{"molecule": "mouse CCL21 (from UniProt P84444 24-133) (ligand)", "Kd": 0.385, "koff": 0.00296, "kon": "7.68e+06"}, {"molecule": "mouse CCL2 (from UniProt P10148 24-148) (ligand)", "Kd": 0.186, "koff": 0.00022, "kon": "1.18e+06"}]}, {"target": "Bovine papular stomatitis virus chemokine-binding protein (Bovine papular stomatitis virus (strain V660 named for the sequence analysis))", "test": "SPR; BPSV-CBP immobilised on a CM5 chip (~500 RU) by amine coupling; serial dilutions of mouse chemokines in HBS-EP (20 mM HEPES, 150 mM NaCl, 3.4 mM EDTA, 0.005% Polysorbate 20, pH 7.4) run in triplicate, 3 min association, 10 min dissociation; 25°C, Biacore X100; global fit with a 1:1 binding model", "units": {"Kd": "nM", "koff": "s⁻¹", "kon": "M⁻¹ s⁻¹"}, "values": [{"molecule": "B1", "Kd": 4.3}, {"molecule": "B2", "Kd": 2.3}, {"molecule": "B3", "koff": "2e-05"}, {"molecule": "B4", "Kd": 0.725, "koff": 0.0006}, {"molecule": "B5", "Kd": 1.4, "koff": 0.0014, "kon": "1e+06"}]}, {"target": "Bovine papular stomatitis virus chemokine-binding protein (Bovine papular stomatitis virus (strain V660 named for the sequence analysis))", "test": "SEC-MALS; purified BPSV-CBP in solution, three concentrations (2, 1, 0.05 mg/ml)", "values": [{"molecule": "Bovine papular stomatitis virus chemokine-binding protein (natural protein)", "stoichiometry N": 2}]}, {"target": "Bovine papular stomatitis virus chemokine-binding protein (Bovine papular stomatitis virus)", "test": "SPR; BPSV-CBP immobilised on a CM5 chip (~500 RU, amine coupling, 10 mM sodium acetate pH 4.5); serial dilutions of mouse chemokines in HBS-EP pH 7.4 flowed in triplicate, 3 min association, 10 min dissociation, 25°C, Biacore X100; global fit, 1:1 binding model", "remark": "another data set of the same source", "units": {"Kd": "nM", "koff": "s⁻¹", "kon": "M⁻¹ s⁻¹"}, "values": [{"molecule": "B1", "Kd": 4.33, "koff": 0.00316, "kon": 730000}, {"molecule": "B2", "Kd": 2.32, "koff": 0.00234, "kon": "1.01e+06"}, {"molecule": "B3", "Kd": 0.00146, "kon": "1.37e+07"}, {"molecule": "B4", "koff": 0.00056, "kon": 770000}, {"molecule": "B5", "Kd": 1.36, "koff": 0.00135, "kon": 990000}, {"molecule": "B6", "Kd": 0.13, "koff": 0.00023, "kon": "1.76e+06"}]}]}
